Data published in paper PMC10967792.

Columns and labels:
[1] = target: hCCR7-mNeongreen (CCR7 C-terminally tagged with mNeonGreen) (human) (UniProt P32248)
[2] = target: human CC chemokine receptor 7 (hCCR7), stably expressed (human) (UniProt P32248)

CC chemokine ligand 19 (CCL19) (from UniProt Q99731 22-98)
pEC50 of β-arrestin1 (Arrβ1) recruitment to CCR7 (NanoBRET), CHO-K1 cells [1]: 7.92 -log10(M)
pEC50 of β-arrestin1 (Arrβ1) recruitment to CCR7 (NanoBRET), HEK293A cells [1]: 7.46 -log10(M)
pEC50 of β-arrestin1 (Arrβ1) recruitment to CCR7 (NanoBRET), U87 cells [1]: 7.86 -log10(M)
pEC50 of β-arrestin2 (Arrβ2) recruitment to CCR7 (NanoBRET), CHO-K1 cells [1]: 8.11 -log10(M)
pEC50 of β-arrestin2 (Arrβ2) recruitment to CCR7 (NanoBRET), HEK293A cells [1]: 7.57 -log10(M)
pEC50 of β-arrestin2 (Arrβ2) recruitment to CCR7 (NanoBRET), U87 cells [1]: 7.86 -log10(M)
pEC50 of Gα12 activation (NanoBRET, G protein dissociation), HEK293A cells expressing CCR7 [2]: 7.44 -log10(M)
pEC50 of Gα12 activation (NanoBRET, G protein dissociation), U87 cells expressing CCR7 [2]: 7.81 -log10(M)
pEC50 of Gα13 activation (NanoBRET, G protein dissociation), CHO-K1 cells expressing CCR7 [2]: 8.87 -log10(M)
pEC50 of Gα13 activation (NanoBRET, G protein dissociation), U87 cells expressing CCR7 [2]: 8.77 -log10(M)
pEC50 of Gα15 activation (NanoBRET, G protein dissociation), CHO-K1 cells expressing CCR7 [2]: 8.91 -log10(M)
pEC50 of Gα15 activation (NanoBRET, G protein dissociation), HEK293A cells expressing CCR7 [2]: 7.8 -log10(M)
pEC50 of Gαi1 activation (NanoBRET, G protein dissociation), CHO-K1 cells expressing CCR7 [2]: 8.54 -log10(M)
pEC50 of Gαi1 activation (NanoBRET, G protein dissociation), HEK293A cells expressing CCR7 [2]: 8.63 -log10(M)
pEC50 of Gαi1 activation (NanoBRET, G protein dissociation), U87 cells expressing CCR7 [2]: 8.28 -log10(M)
pEC50 of Gαi2 activation (NanoBRET, G protein dissociation), CHO-K1 cells expressing CCR7 [2]: 8.69 -log10(M)
pEC50 of Gαi2 activation (NanoBRET, G protein dissociation), HEK293A cells expressing CCR7 [2]: 9.03 -log10(M)
pEC50 of Gαi2 activation (NanoBRET, G protein dissociation), U87 cells expressing CCR7 [2]: 8.56 -log10(M)
pEC50 of Gαi3 activation (NanoBRET, G protein dissociation), CHO-K1 cells expressing CCR7 [2]: 8.84 -log10(M)
pEC50 of Gαi3 activation (NanoBRET, G protein dissociation), HEK293A cells expressing CCR7 [2]: 9.61 -log10(M)
pEC50 of Gαi3 activation (NanoBRET, G protein dissociation), U87 cells expressing CCR7 [2]: 8.87 -log10(M)
pEC50 of GαoA activation (NanoBRET, G protein dissociation), CHO-K1 cells expressing CCR7 [2]: 9.37 -log10(M)
pEC50 of GαoA activation (NanoBRET, G protein dissociation), HEK293A cells expressing CCR7 [2]: 8.3 -log10(M)
pEC50 of GαoA activation (NanoBRET, G protein dissociation), U87 cells expressing CCR7 [2]: 8.59 -log10(M)
pEC50 of GαoB activation (NanoBRET, G protein dissociation), CHO-K1 cells expressing CCR7 [2]: 8.96 -log10(M)
pEC50 of GαoB activation (NanoBRET, G protein dissociation), HEK293A cells expressing CCR7 [2]: 8.85 -log10(M)
pEC50 of GαoB activation (NanoBRET, G protein dissociation), U87 cells expressing CCR7 [2]: 8.8 -log10(M)
pEC50 of Gαq activation (NanoBRET, G protein dissociation), CHO-K1 cells expressing CCR7 [2]: 8.77 -log10(M)
pEC50 of Gαq activation (NanoBRET, G protein dissociation), U87 cells expressing CCR7 [2]: 8.41 -log10(M)
pEC50 of GαsL activation (NanoBRET, G protein dissociation), CHO-K1 cells expressing CCR7 [2]: 8.97 -log10(M)
pEC50 of GαsL activation (NanoBRET, G protein dissociation), HEK293A cells expressing CCR7 [2]: 7.49 -log10(M)
pEC50 of GαsL activation (NanoBRET, G protein dissociation), U87 cells expressing CCR7 [2]: 8.95 -log10(M)
pEC50 of GαsS activation (NanoBRET, G protein dissociation), CHO-K1 cells expressing CCR7 [2]: 8.58 -log10(M)
pEC50 of GαsS activation (NanoBRET, G protein dissociation), U87 cells expressing CCR7 [2]: 8.65 -log10(M)

CC chemokine ligand 21 (CCL21) (from UniProt O00585 24-134)
pEC50 of β-arrestin1 (Arrβ1) recruitment to CCR7 (NanoBRET), CHO-K1 cells [1]: 7.52 -log10(M)
pEC50 of β-arrestin1 (Arrβ1) recruitment to CCR7 (NanoBRET), HEK293A cells [1]: 7.15 -log10(M)
pEC50 of β-arrestin1 (Arrβ1) recruitment to CCR7 (NanoBRET), U87 cells [1]: 6.9 -log10(M)
pEC50 of β-arrestin2 (Arrβ2) recruitment to CCR7 (NanoBRET), CHO-K1 cells [1]: 7.69 -log10(M)
pEC50 of β-arrestin2 (Arrβ2) recruitment to CCR7 (NanoBRET), HEK293A cells [1]: 7.02 -log10(M)
pEC50 of β-arrestin2 (Arrβ2) recruitment to CCR7 (NanoBRET), U87 cells [1]: 7.01 -log10(M)
pEC50 of Gα12 activation (NanoBRET, G protein dissociation), CHO-K1 cells expressing CCR7 [2]: 7.94 -log10(M)
pEC50 of Gα12 activation (NanoBRET, G protein dissociation), HEK293A cells expressing CCR7 [2]: 6.79 -log10(M)
pEC50 of Gα12 activation (NanoBRET, G protein dissociation), U87 cells expressing CCR7 [2]: 7.5 -log10(M)
pEC50 of Gα13 activation (NanoBRET, G protein dissociation), CHO-K1 cells expressing CCR7 [2]: 8.53 -log10(M)
pEC50 of Gα13 activation (NanoBRET, G protein dissociation), U87 cells expressing CCR7 [2]: 8.7 -log10(M)
pEC50 of Gα15 activation (NanoBRET, G protein dissociation), CHO-K1 cells expressing CCR7 [2]: 7.56 -log10(M)
pEC50 of Gα15 activation (NanoBRET, G protein dissociation), HEK293A cells expressing CCR7 [2]: 6.74 -log10(M)
pEC50 of Gαi1 activation (NanoBRET, G protein dissociation), CHO-K1 cells expressing CCR7 [2]: 8.37 -log10(M)
pEC50 of Gαi1 activation (NanoBRET, G protein dissociation), HEK293A cells expressing CCR7 [2]: 8.47 -log10(M)
pEC50 of Gαi1 activation (NanoBRET, G protein dissociation), U87 cells expressing CCR7 [2]: 8.02 -log10(M)
pEC50 of Gαi2 activation (NanoBRET, G protein dissociation), CHO-K1 cells expressing CCR7 [2]: 8.91 -log10(M)
pEC50 of Gαi2 activation (NanoBRET, G protein dissociation), HEK293A cells expressing CCR7 [2]: 8.76 -log10(M)
pEC50 of Gαi2 activation (NanoBRET, G protein dissociation), U87 cells expressing CCR7 [2]: 8.27 -log10(M)
pEC50 of Gαi3 activation (NanoBRET, G protein dissociation), CHO-K1 cells expressing CCR7 [2]: 8.84 -log10(M)
pEC50 of Gαi3 activation (NanoBRET, G protein dissociation), HEK293A cells expressing CCR7 [2]: 9.33 -log10(M)
pEC50 of Gαi3 activation (NanoBRET, G protein dissociation), U87 cells expressing CCR7 [2]: 8.6 -log10(M)
pEC50 of GαoA activation (NanoBRET, G protein dissociation), CHO-K1 cells expressing CCR7 [2]: 9.27 -log10(M)
pEC50 of GαoA activation (NanoBRET, G protein dissociation), HEK293A cells expressing CCR7 [2]: 7.97 -log10(M)
pEC50 of GαoA activation (NanoBRET, G protein dissociation), U87 cells expressing CCR7 [2]: 8.33 -log10(M)
pEC50 of GαoB activation (NanoBRET, G protein dissociation), CHO-K1 cells expressing CCR7 [2]: 8.97 -log10(M)
pEC50 of GαoB activation (NanoBRET, G protein dissociation), HEK293A cells expressing CCR7 [2]: 8.34 -log10(M)
pEC50 of GαoB activation (NanoBRET, G protein dissociation), U87 cells expressing CCR7 [2]: 8.45 -log10(M)
pEC50 of Gαq activation (NanoBRET, G protein dissociation), CHO-K1 cells expressing CCR7 [2]: 8.45 -log10(M)
pEC50 of Gαq activation (NanoBRET, G protein dissociation), U87 cells expressing CCR7 [2]: 8.1 -log10(M)
pEC50 of GαsL activation (NanoBRET, G protein dissociation), HEK293A cells expressing CCR7 [2]: 6.79 -log10(M)
pEC50 of GαsL activation (NanoBRET, G protein dissociation), U87 cells expressing CCR7 [2]: 8.99 -log10(M)
pEC50 of GαsS activation (NanoBRET, G protein dissociation), CHO-K1 cells expressing CCR7 [2]: 8.1 -log10(M)
pEC50 of GαsS activation (NanoBRET, G protein dissociation), U87 cells expressing CCR7 [2]: 8.39 -log10(M)
